The text below walks through data of patent US20140161804A1 (AbbVie / Abbott, published 2014).

Sequences and labels used below:
B1: hMAK199-1-h10F7-M10.8 QL DVD-Ig (bispecific antibody, human IgG1, kappa, L234A L235A)
heavy: EVQLVQSGAEVKKPGASVKVSCKASGYTFANYGIIWVRQAPGQGLEWMGWINTYTGKPTYAQKFQGRVTMTTDTSTSTAYMELSSLRSEDTAVYYCARKLFTTMDVTDNAMDYWGQGTTVTVSSGGGGSGGGGSEVQLVQSGAEVKKPGSSVKVSCKASGYTFDDYEIHWVRQAPGQGLEWIGVNDPESGGTFYNQKFDGRATLTADKSTSTAYMELSSLRSEDTAVYYCTRYDKWDSFYGMDYWGQGTTVTVSSASTKGPSVFPLAPSSKSTSGGTAALGCLVKDYFPEPVTVSWNSGALTSGVHTFPAVLQSSGLYSLSSVVTVPSSSLGTQTYICNVNHKPSNTKVDKKVEPKSCDKTHTCPPCPAPEAAGGPSVFLFPPKPKDQLMISRTPEVTCVVVDVSHEDPEVKFNWYVDGVEVHNAKTKPREEQYNSTYRVVSVLTVLHQDWLNGKEYKCKVSNKALPAPIEKTISKAKGQPREPQVYTLPPSREEMTKNQVSLTCLVKGFYPSDIAVEWESNGQPENNYKTTPPVLDSDGSFFLYSKLTVDKSRWQQGNVFSCSVLHEALHNHYTQKSLSLSPGK
light: DIQMTQSPSSLSASVGDRVTITCRASQDISQYLNWYQQKPGKAPKLLIYYTSRLQSGVPSRFSGSGSGTDFTLTISSLQPEDFATYFCQQGNTWPPTFGQGTKLEIKRGGSGGGGSGDIQMTQSPSSLSASVGDRVTITCSASSGSISYIDWFQQKPGKAPKRLIYATFELASGVPSRFSGSGSGTDFTLTISSLQPEDFATYYCHQLGSYPDTFGQGTKLEIKRTVAAPSVFIFPPSDEQLKSGTASVVCLLNNFYPREAKVQWKVDNALQSGNSQESVTEQDSKDSTYSLSSTLTLSKADYEKHKVYACEVTHQGLSSPVTKSFNRGEC
notes: DVD-Ig; IgG1 (234,235) mut with QL mutations, kappa; GS10 linkers
B2: hMAK199-1-h10F7-M11.8 YTE DVD-Ig (bispecific antibody, human IgG1, kappa, L234A L235A)
heavy: EVQLVQSGAEVKKPGASVKVSCKASGYTFANYGIIWVRQAPGQGLEWMGWINTYTGKPTYAQKFQGRVTMTTDTSTSTAYMELSSLRSEDTAVYYCARKLFTTMDVTDNAMDYWGQGTTVTVSSGGGGSGGGGSEVQLVQSGAEVKKPGSSVKVSCKASGYTFTDYEIHWVRQAPGQGLEWMGVNDPESGGTFYNQKFDGRVTLTADESTSTAYMELSSLRSEDTAVYYCTRYSKWDSFDGMDYWGQGTTVTVSSASTKGPSVFPLAPSSKSTSGGTAALGCLVKDYFPEPVTVSWNSGALTSGVHTFPAVLQSSGLYSLSSVVTVPSSSLGTQTYICNVNHKPSNTKVDKKVEPKSCDKTHTCPPCPAPEAAGGPSVFLFPPKPKDTLYITREPEVTCVVVDVSHEDPEVKFNWYVDGVEVHNAKTKPREEQYNSTYRVVSVLTVLHQDWLNGKEYKCKVSNKALPAPIEKTISKAKGQPREPQVYTLPPSREEMTKNQVSLTCLVKGFYPSDIAVEWESNGQPENNYKTTPPVLDSDGSFFLYSKLTVDKSRWQQGNVFSCSVMHEALHNHYTQKSLSLSPGK
light: B1 light with S141R, S146I, E170D, F188Y, H206R, L208V, D213E
notes: DVD-Ig; IgG1 (234,235) mut with YTE mutations, kappa; GS10 linkers
B3: h10F7-M10-hMAk195-24.8 DVD-Ig (bispecific antibody, human IgG1, kappa, L234A L235A)
heavy: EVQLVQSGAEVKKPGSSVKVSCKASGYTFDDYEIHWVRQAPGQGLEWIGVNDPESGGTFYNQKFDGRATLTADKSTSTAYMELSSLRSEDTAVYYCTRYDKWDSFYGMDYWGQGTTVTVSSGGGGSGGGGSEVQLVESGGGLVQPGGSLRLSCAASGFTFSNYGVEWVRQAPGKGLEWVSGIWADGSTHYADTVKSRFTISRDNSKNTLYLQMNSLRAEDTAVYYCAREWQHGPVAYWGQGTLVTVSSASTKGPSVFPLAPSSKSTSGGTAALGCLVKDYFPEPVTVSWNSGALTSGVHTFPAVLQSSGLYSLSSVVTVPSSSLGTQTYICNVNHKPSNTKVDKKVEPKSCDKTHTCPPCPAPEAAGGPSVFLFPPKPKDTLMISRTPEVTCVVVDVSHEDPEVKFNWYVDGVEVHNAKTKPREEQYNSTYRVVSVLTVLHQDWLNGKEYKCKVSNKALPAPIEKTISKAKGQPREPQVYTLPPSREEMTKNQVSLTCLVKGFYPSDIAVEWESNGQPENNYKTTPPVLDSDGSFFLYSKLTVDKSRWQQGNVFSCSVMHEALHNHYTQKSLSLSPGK
light: DIQMTQSPSSLSASVGDRVTITCSASSGSISYIDWFQQKPGKAPKRLIYATFELASGVPSRFSGSGSGTDFTLTISSLQPEDFATYYCHQLGSYPDTFGQGTKLEIKRGGSGGGGSGDIQMTQSPSSLSASVGDRVTITCKASQLVSSAVAWYQQKPGKAPKLLIYWASTLHTGVPSRFSGSGSGTDFTLTISSLQPEDFATYYCQQHYRTPFTFGQGTKLEIKRTVAAPSVFIFPPSDEQLKSGTASVVCLLNNFYPREAKVQWKVDNALQSGNSQESVTEQDSKDSTYSLSSTLTLSKADYEKHKVYACEVTHQGLSSPVTKSFNRGEC
B4: IL17-h10F7M-B20 hIgG1/K mut (antibody, V domains shown)
VH: EVQLVQSGAEVKKPGSSVKVSCKASGYTFTDYEIHWVRQAPGQGLEWMGVNDPESGGTFYNQKFDGRVTLTADESTSTAYMELSSLRSEDTAVYYCTRYDKWYSFEGMDIWGQGTTVTVSS
VL: DIQMTQSPSSLSASVGDRVTITCRASSGIISYIDWFQQKPGKAPKRLIYATFDLASGVPSRFSGSGSGTDYTLTISSLQPEDFATYYCRQVGSYPETFGQGTKLEIK
notes: Full length human IgG1/kappa, IgG1 mut(234,235); also called h10F7-B20; J439M1S2(H)3 #B20
B5: IL17-h10F7M10 hIgG1/K mut (antibody, V domains shown)
VH: B4 VH with T30D, M48I, V68A, E74K, Y103D, E106Y, I110Y
VL: B4 VL with R24S, I29S, D53E, Y71F, R89H, V91L, E96D
notes: Full length human IgG1/kappa, IgG1 mut(234,235) (HC plasmid pHybE-hCg1,z,non-a,mut(234,235); LC pHybE-hCk); also called J439M1S3R5#10; PR-1262986
B6: IL17-h10F7M-A11 hIgG1/K mut (antibody, V domains shown)
VH: B4 VH with M48I, T71S, W102Y, Y103W, I110Y
VL: B4 VL
notes: Full length human IgG1/kappa, IgG1 mut(234,235); also called h10F7-A11; J439M1S2(H)3 #A11
B7: IL17-h10F7M11 hIgG1/K mut (antibody, V domains shown)
VH: B4 VH with D100S, Y103D, E106D, I110Y
VL: B4 VL
notes: Full length human IgG1/kappa, IgG1 mut(234,235); also called J439M1S3R5#11; PR-1263009
B8: IL17-h10F7M-B13 hIgG1/K mut (antibody, V domains shown)
VH: B4 VH with T30S, W102Y, Y103W, I110Y
VL: B4 VL
notes: Full length human IgG1/kappa, IgG1 mut(234,235); also called h10F7-B13; J439M1S2(H)3 #B13
B9: IL17-h10F7M-A16 hIgG1/K mut (antibody, V domains shown)
VH: B4 VH with T30S
VL: B4 VL with R24S, S27Q, I30R, A43S, S93N, E96G
notes: Full length human IgG1/kappa, IgG1 mut(234,235); also called h10F7-A16; J439M1S2(H)3 #A16
B10: IL17-h10F7M-A6 hIgG1/K mut (antibody, V domains shown)
VH: B4 VH with M48I, E54D, F59L
VL: B4 VL with R24S, S27Q, I30R, A43S, S93N, E96G
notes: Full length human IgG1/kappa, IgG1 mut(234,235); also called h10F7-A6; J439M1S2(H)3 #A6

Where a chain is given by its changes, count along the chain named.

T1 sequence (P01375 77-233 limits assumed): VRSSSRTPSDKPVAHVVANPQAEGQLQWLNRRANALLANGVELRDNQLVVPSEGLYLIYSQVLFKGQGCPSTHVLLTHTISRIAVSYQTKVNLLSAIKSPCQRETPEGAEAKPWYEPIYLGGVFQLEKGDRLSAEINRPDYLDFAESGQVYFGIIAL

One assay concerns the target T1, Human TNF (human, UniProt P01375 77-233).
T1 construct: Biotinylated in the ELISA; purified recombinant protein in SPR; also called h TNF; huTNF
The experiment in a line: ELISA, captured DVD-Ig, biotin-human TNF titrated. How it is done:
(§1) The following protocol is used to characterize the binding of TNF/IL-17 DVD-Ig proteins to human TNF and IL-17 by enzyme-linked immunosorbent assay (ELISA). An ELISA plate was coated with 50 μl per well of goat anti mouse IgG-Fc at 2 μg/ml, overnight at 4° C. The plate was washed 3 times with PBS/Tween. 50 μl Mab diluted to 1 μg/ml in PBS/0.1% BSA was added to appropriate wells and incubated for 1 hour at room temperature (RT). The plate was washed 3 times with PBS/Tween. 50 μl of serial diluted biotin-human TNF or IL-17 was added to appropriate wells and incubated for 1 hour at RT. The plate was washed 3 times with PBS/Tween. 50 μl of streptavidin-HRP diluted 1:10,000 in PBS/0.1% BSA was added to appropriate wells and incubated for 1 hour at RT. The plate was washed 3 times with PBS/Tween. 50 μl of TMB was added to appropriate wells and the reaction allowed to proceed for 1 minute. The reaction was stopped with 50 μl/well 2N H₂SO₄ and the absorbance read at 450 nm.
(In general: In an ELISA, binding on a coated surface is turned into a signal by an enzyme label.)
As for B1, the EC50 is 0.183 nM.
Same read-out and setting: then B2, with 0.1 nM.

A further assay deals with T1, Human TNF. The experiment in a line: cell-based or functional assay.
For B3, the “Potency IC50 (nM), L929 bioassay, human TNF” value was 2.56 nM.

In another assay the target is T2, Human IL-17A (human, UniProt Q16552 20-155, limits assumed).
T2 construct: Biotinylated in the ELISAs; purified recombinant protein in SPR; also called hIL17A; hIL-17
T2 sequence (Q16552 20-155 limits assumed): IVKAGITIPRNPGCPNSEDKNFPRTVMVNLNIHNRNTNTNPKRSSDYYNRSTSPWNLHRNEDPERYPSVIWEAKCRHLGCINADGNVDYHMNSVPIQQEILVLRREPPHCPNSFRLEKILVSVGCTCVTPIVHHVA
The experiment in a line: ELISA, captured antibody, biotin-human IL-17 titrated. How it is done: as §1, with “IL-17 antibodies” for “TNF/IL-17 DVD-Ig proteins”, “human” for “human TNF and”, “biotin-human” for “biotin-human TNF or”
Molecule B4 yielded an EC50 of 0.07 nM.
Turning to B5, the response was half-maximal at 0.03 nM (EC50).
The same measure, in the same setting: then B6, with 0.04 nM; and B7, with 0.04 nM; and B8, with 0.06 nM.
B9: the EC50 amounted to 0.07 nM.
B10 registered an EC50 of 0.08 nM.

Another assay deals with T2, Human IL-17A. The experiment in a line: ELISA, captured DVD-Ig, biotin-human IL-17 titrated. How it is done: as §1
The molecule B1 had an EC50 of 0.063 nM.
Still for that read-out and setting: then B2, with 0.05 nM.

In a further assay the target is T3, Cynomolgus monkey IL-17A (cynomolgus monkey, UniProt A0A2K5TTB0 24-155).
T3 construct: also called Cyno IL-17AA; Cyno IL17AA
T3 sequence (A0A2K5TTB0 entry or part of it): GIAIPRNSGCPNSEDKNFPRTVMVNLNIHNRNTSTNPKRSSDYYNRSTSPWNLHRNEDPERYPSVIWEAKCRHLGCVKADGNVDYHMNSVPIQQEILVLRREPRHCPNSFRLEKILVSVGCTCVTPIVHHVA
The experiment in a line: SPR (Biacore T200), antibody captured by anti-human IgG Fc, antigen in solution. How it is done: (§2) The binding of antibodies to purified recombinant IL-17 proteins was determined by surface plasmon resonance-based measurements with a Biacore® T200 instrument (GE Healthcare) using running HBS-EP (10 mM HEPES [pH 7.4], 150 mM NaCl, 3 mM EDTA, and 0.005% surfactant P20) containing 0.1 mg/ml BSA at 25° C. All chemicals were obtained from Biacore® AB (GE Healthcare) or otherwise from a source as described in the text. Approximately 5000 RU of goat anti-human IgG (Fcg) fragment specific polyclonal antibody (Pierce Biotechnology Inc, Rockford, Ill.) diluted in 10 mM sodium acetate (pH 4.5) was directly immobilized across a CM5 research grade biosensor chip using a standard amine coupling kit according to manufacturer's instructions and procedures at 25 μg/ml. Unreacted moieties on the biosensor surface were blocked with ethanolamine. Modified carboxymethyl dextran surface in flowcell 2, 3 and 4 were used as a reaction surface. Modified carboxymethyl dextran with Goat IgG in flow cell 1 was used as the reference surface. For kinetic analysis, rate equations derived from the 1:1 Langmuir binding model were fitted simultaneously to association and dissociation phases of all six injections (using global fit analysis with local float for Rmax) with the use of Biacore T200 Evaluation software v.1.0. Purified antibodies were diluted in HEPES-buffered saline for capture across goat anti-human IgG specific reaction surfaces. Antibodies to be captured as ligand (1-5 μg/ml) were injected over reaction matrices at a flow rate of 50 μl/minute. Association phase was monitored for 5 minute, while dissociation phase was monitored for 10-60 min to accommodate for slower off-rates. The association and dissociation rate constants, ka (unit M-1 s-1) and kd (unit s-1) were determined under a continuous flow rate of 50 μl/minute. Rate constants were derived by making kinetic binding measurements at six different antigen concentrations ranging from 0.78 nM to 100 nM, depending on the species of IL-17 tested. The association ka, dissociation rate kd and equilibrium dissociation constant KD were calculated with the use of the same Biacore T200 Evaluation software v.1.0.
For orientation: Surface plasmon resonance follows binding to a sensor surface in real time, without labels.
Molecule B5 registered a Kd of 0.00106 nM, a koff of 4.4e-06 s⁻¹ and an association rate constant (kon) of 4.14e+06 M⁻¹ s⁻¹.
For B7, the Kd was found to be 0.00086 nM, the koff stood at 3.88e-06 s⁻¹ and the kon turned out to be 4.5e+06 M⁻¹ s⁻¹.

In a further assay the target is T2, Human IL-17A. The assay is described as above. Here is the method:
as §2
On to B4, for which binding was put at a Kd of 0.00214 nM, the koff is 6.27e-06 s⁻¹ and the kon amounted to 2.92e+06 M⁻¹ s⁻¹.
Taken in the same sequence, the figures for B5 were 0.00153 nM, 6.8e-06 s⁻¹ and 4.45e+06 M⁻¹ s⁻¹.
Taken in the same sequence, the figures for B6 were 0.0021 nM, 7.68e-06 s⁻¹ and 3.64e+06 M⁻¹ s⁻¹.
Regarding B7, binding was characterised by a dissociation constant (Kd) of 0.00159 nM, the koff came to 7.24e-06 s⁻¹ and the kon worked out at 4.53e+06 M⁻¹ s⁻¹.
Taken in the same sequence, the figures for B8 were 0.00256 nM, 6.88e-06 s⁻¹ and 2.68e+06 M⁻¹ s⁻¹.
For B9, in that order: 0.00151 nM, 4.52e-06 s⁻¹ and 2.99e+06 M⁻¹ s⁻¹.
Taken in the same sequence, the figures for B10 were 0.0015 nM, 4.48e-06 s⁻¹ and 2.99e+06 M⁻¹ s⁻¹.

What is called EC50 is the midpoint of the concentration-response curve. Usually Kd stands for the constant that tells how readily two partners part at equilibrium. The koff is the rate constant with which the complex falls apart. As a reminder, the kon is a measure of how fast the partners come together.
